Test results taken from patent publication US20160145657A1, “Methods and Materials for Producing 7-Carbon Chemicals via a C9 Route” (INVISTA North America S.á.r.l., priority 2014, published 2016).

Columns and labels:
Format in all cases: biochemical
[1] = carboxylate reductase activity, pimelate to pimelate semialdehyde, NADPH consumption at 340 nm; conditions: purified enzyme enhanced by sfp gene product, 2 mM pimelate, pH 7.5, room temperature, 20 min; FIG. 8
Description: A nucleotide sequence encoding a HIS-tag was added to the nucleic acid sequences from Segniliparus rugosus and Segniliparus rotundus that encode the carboxylate reductases of SEQ ID NOs: 4 (EFV11917.1) and 6 (ADG98140.1), respectively (see FIG. 6), such that N-terminal HIS tagged carboxylate reductases could be produced. Each of the modified genes was cloned into a pET Duet expression vector along with a sfp gene encoding a HIS-tagged phosphopantetheine transferase from Bacillus subtilis, both under the T7 promoter. Each expression vector was transformed into a BL21[DE3] E. coli host and the resulting recombinant E. coli strains were cultivated at 37° C. in a 250 mL shake flask culture containing 50 mL LB media and antibiotic selection pressure, with shaking at 230 rpm. Each culture was induced overnight at 37° C. using an auto-induction media.
The pellet from each induced shake flask culture was harvested via centrifugation. Each pellet was resuspended and lysed via sonication, and the cell debris was separated from the supernatant via centrifugation. […]
Enzyme activity assays (i.e., from pimelate to pimelate semialdehyde) were performed in triplicate in a buffer composed of a final concentration of 50 mM HEPES buffer (pH=7.5), 2 mM pimelate, 10 mM MgCl2, 1 mM ATP and 1 mM NADPH. […] The consumption of NADPH was monitored by absorbance at 340 nm. […]

[2] = carboxylate reductase activity, N7-acetyl-7-aminoheptanoate to N7-acetyl-7-aminoheptanal, NADPH consumption at 340 nm; conditions: purified enzyme enhanced by sfp gene product, 2 mM N7-acetyl-7-aminoheptanoate, pH 7.5, room temperature, 20 min; FIG. 10
Description: The activity of each of the N-terminal His-tagged carboxylate reductases of SEQ ID NOs: 3, 5, and 6 (see Examples 2 and 3, and FIG. 6) for converting N7-acetyl-7-aminoheptanoate to N7-acetyl-7-aminoheptanal was assayed in triplicate in a buffer composed of a final concentration of 50 mM HEPES buffer (pH=7.5), 2 mM N7-acetyl-7-aminoheptanoate, 10 mM MgCl2, 1 mM ATP, and 1 mM NADPH. The assays were initiated by adding purified carboxylate reductase and phosphopantetheine transferase or the empty vector control to the assay buffer containing the N7-acetyl-7-aminoheptanoate then incubated at room temperature for 20 min. The consumption of NADPH was monitored by absorbance at 340 nm.

[3] = carboxylate reductase activity, pimelate semialdehyde to heptanedial, NADPH consumption at 340 nm; conditions: purified enzyme enhanced by sfp gene product, 2 mM pimelate semialdehyde, pH 7.5, room temperature, 20 min; FIG. 11
Description: The N-terminal His-tagged carboxylate reductase of SEQ ID NO: 6 (see Example 3 and FIG. 6) was assayed using pimelate semialdehyde as substrate. The enzyme activity assay was performed in triplicate in a buffer composed of a final concentration of 50 mM HEPES buffer (pH=7.5), 2 mM pimelate semialdehyde, 10 mM MgCl2, 1 mM ATP and 1 mM NADPH. The enzyme activity assay reaction was initiated by adding purified carboxylate reductase and phosphopantetheine transferase or the empty vector control to the assay buffer containing the pimelate semialdehyde and then incubated at room temperature for 20 min. The consumption of NADPH was monitored by absorbance at 340 nm.

acceptance of pimelate as substrate (NADPH consumption) against the empty vector control [1]: accepted pimelate as substrate
B1: SEQ ID NO: 6: Segniliparus rotundus carboxylate reductase, Genbank Accession No. ADG98140.1 (protein)
chain: MTQSHTQGPQASAAHSRLARRAAELLATDPQAAATLPDPEVVRQATRPGLRLAERVDAILSGYADRPALGQRSFQTVKDPITGRSSVELLPTFDTITYRELRERATAIASDLAHHPQAPAKPGDFLASIGFISVDYVAIDIAGVFAGLTAVPLQTGATLATLTAITAETAPTLFAASIEHLPTAVDAVLATPSVRRLLVFDYRAGSDEDREAVEAAKRKIADAGSSVLVDVLDEVIARGKSAPKAPLPPATDAGDDSLSLLIYTSGSTGTPKGAMYPERNVAHFWGGVWAAAFDEDAAPPVPAINITFLPLSHVASRLSLMPTLARGGLMHFVAKSDLSTLFEDLKLARPTNLFLVPRVVEMLYQHYQSELDRRGVQDGTREAEAVKDDLRTGLLGGRILTAGFGSAPLSAELAGFIESLLQIHLVDGYGSTEAGPVWRDGYLVKPPVTDYKLIDVPELGYFSTDSPHPRGELAIKTQTILPGYYKRPETTAEVFDEDGFYLTGDVVAQIGPEQFAYVDRRKNVLKLSQGEFVTLAKLEAAYSSSPLVRQLFVYGSSERSYLLAVIVPTPDALKKFGVGEAAKAALGESLQKIARDEGLQSYEVPRDFIIETDPFTVENGLLSDARKSLRPKLKEHYGERLEAMYKELADGQANELRDIRRGVQQRPTLETVRRAAAAMLGASAAEIKPDAHFTDLGGDSLSALTFSNFLHDLFEVDVPVGVIVSAANTLGSVAEHIDAQLAGGRARPTFATVHGKGSTTIKASDLTLDKFIDEQTLEAAKHLPKPADPPRTVLLTGANGWLGRFLALEWLERLAPAGGKLITIVRGKDAAQAKARLDAAYESGDPKLAGHYQDLAATTLEVLAGDFSEPRLGLDEATWNRLADEVDFISHPGALVNHVLPYNQLFGPNVAGVAEIIKLAITTRIKPVTYLSTVAVAAGVEPSALDEDGDIRTVSAERSVDEGYANGYGNSKWGGEVLLREAHDRTGLPVRVFRSDMILAHQKYTGQVNATDQFTRLVQSLLATGLAPKSFYELDAQGNRQRAHYDGIPVDFTAESITTLGGDGLEGYRSYNVFNPHRDGVGLDEFVDWLIEAGHPITRIDDYDQWLSRFETSLRGLPESKRQASVLPLLHAFARPGPAVDGSPFRNTVFRTDVQKAKIGAEHDIPHLGKALVLKYADDIKQLGLL
acceptance of N7-acetyl-7-aminoheptanoate as substrate (NADPH consumption) against the empty vector control [2]: accepted N7-acetyl-7-aminoheptanoate as substrate | acceptance of pimelate semialdehyde as substrate (NADPH consumption) against the empty vector control [3]: accepted pimelate semialdehyde as substrate
